What was measured:
Settings in all cases: 20 nM; 72 h
[1] = tested on: MCF10A; assay: percent viability (nuclei count relative to siNT); higher = more viable cells
Description: (§1)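 After 72 h, cells were fixed and stained with Hoechst and anti-fibrillarin, and nucleoli per nucleus were counted with CellProfiler. Values are plate-adjusted percent effect for the one-nucleolus and 5+ nucleoli phenotypes, normalised to siNT (0%) and to the positive controls siNOL11 or siKIF11 (100%), as the mean of biological triplicates. Percent viability is the nuclei count relative to siNT.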

[2] = tested on: MCF10A; assay: one-nucleolus phenotype percent effect (relative to siNT 0% and siNOL11 100%); higher = more cells with one nucleolus (ribosome biogenesis inhibition)
Description: as §1

[3] = tested on: MCF10A; assay: 5+ nucleoli phenotype percent effect (relative to siNT 0% and siKIF11 100%); higher = more cells with five or more nucleoli
Description: as §1

AGGUGGGUAUGGAGGAGCCCU [hsa-miR-6769a-5p]
percent viability [1]: 14.3%
one-nucleolus phenotype percent effect [2]: 39.6%
5+ nucleoli phenotype percent effect [3]: -16.7%

AGGUGGUCCGUGGCGCGUUCGC [hsa-miR-323a-5p]
percent viability [1]: 19.8%
one-nucleolus phenotype percent effect [2]: 36.4%
5+ nucleoli phenotype percent effect [3]: -21.1%

AGGUGUGUCUGUAGAGUCC [hsa-miR-3650]
percent viability [1]: 19.8%
one-nucleolus phenotype percent effect [2]: 45.8%
5+ nucleoli phenotype percent effect [3]: -24.7%

AGGUGUUAUCCUAUCCAUUUGC [hsa-miR-4694-5p]
percent viability [1]: 25.3%
one-nucleolus phenotype percent effect [2]: 24.2%
5+ nucleoli phenotype percent effect [3]: -15.4%

AGGUUACCCGAGCAACUUUGCAU [hsa-miR-409-5p]
percent viability [1]: 21.8%
one-nucleolus phenotype percent effect [2]: 42.3%
5+ nucleoli phenotype percent effect [3]: -20.6%

AGGUUCUGUGAUACACUCCGACU [hsa-miR-152-5p]
percent viability [1]: 22%
one-nucleolus phenotype percent effect [2]: 65.8%
5+ nucleoli phenotype percent effect [3]: -38.1%

AGGUUGACAUACGUUUCCC [hsa-miR-563]
percent viability [1]: 70.5%
one-nucleolus phenotype percent effect [2]: -18%
5+ nucleoli phenotype percent effect [3]: 46.2%

AGGUUGCCUGUGAGGUGUUCA [hsa-miR-656-5p]
percent viability [1]: 17.5%
one-nucleolus phenotype percent effect [2]: 10.7%
5+ nucleoli phenotype percent effect [3]: -1.12%

AGGUUGGGAUCGGUUGCAAUGCU [hsa-miR-92a-1-5p]
percent viability [1]: 17.4%
one-nucleolus phenotype percent effect [2]: 4.93%
5+ nucleoli phenotype percent effect [3]: -34%

AGGUUGUCCGUGGUGAGUUCGCA [hsa-miR-323b-5p]
percent viability [1]: 9.9%
one-nucleolus phenotype percent effect [2]: -5.61%
5+ nucleoli phenotype percent effect [3]: 57.7%

AGGUUGUCCGUGUUGUCUUCUCU [hsa-miR-494-5p]
percent viability [1]: 22.3%
one-nucleolus phenotype percent effect [2]: 3.91%
5+ nucleoli phenotype percent effect [3]: 18.5%

AGGUUGUCUGUGAUGAGUUCG [hsa-miR-410-5p]
percent viability [1]: 39.7%
one-nucleolus phenotype percent effect [2]: -12.5%
5+ nucleoli phenotype percent effect [3]: 75.2%

AGUAGAGAGGAAAAGUUAGGGUC [hsa-miR-6832-5p]
percent viability [1]: 64.7%
one-nucleolus phenotype percent effect [2]: -10.8%
5+ nucleoli phenotype percent effect [3]: 20.4%

AGUAUGUUCUUCCAGGACAGAAC [hsa-miR-567]
percent viability [1]: 56.1%
one-nucleolus phenotype percent effect [2]: 8.77%
5+ nucleoli phenotype percent effect [3]: 34.9%

AGUAUUCUGUACCAGGGAAGGU [hsa-miR-630]
percent viability [1]: 68.7%
one-nucleolus phenotype percent effect [2]: -15.1%
5+ nucleoli phenotype percent effect [3]: 49.7%

AGUCAUUGGAGGGUUUGAGCAG [hsa-miR-616-3p]
percent viability [1]: 85.2%
one-nucleolus phenotype percent effect [2]: 10.7%
5+ nucleoli phenotype percent effect [3]: -20%

AGUGAAUGAUGGGUUCUGACC [hsa-miR-1257]
percent viability [1]: 25.9%
one-nucleolus phenotype percent effect [2]: 45.3%
5+ nucleoli phenotype percent effect [3]: -35.8%

AGUGCCUGAGGGAGUAAGAG [hsa-miR-550a-3-5p]
percent viability [1]: 79.3%
one-nucleolus phenotype percent effect [2]: 3.47%
5+ nucleoli phenotype percent effect [3]: -17.5%

AGUGCCUGAGGGAGUAAGAGCCC [hsa-miR-550a-5p]
percent viability [1]: 47.1%
one-nucleolus phenotype percent effect [2]: 7.21%
5+ nucleoli phenotype percent effect [3]: 12.6%

AGUGCCUGCUAUGUGCCAGGCA [hsa-miR-1271-3p]
percent viability [1]: 39.3%
one-nucleolus phenotype percent effect [2]: -6.99%
5+ nucleoli phenotype percent effect [3]: 4.16%

AGUGGACCGAGGAAGGAAGGA [hsa-miR-4800-5p]
percent viability [1]: 44.8%
one-nucleolus phenotype percent effect [2]: 2.75%
5+ nucleoli phenotype percent effect [3]: -9.53%

AGUGGAUGAUGGAGACUCGGUAC [hsa-miR-3691-5p]
percent viability [1]: 13.1%
one-nucleolus phenotype percent effect [2]: 34.9%
5+ nucleoli phenotype percent effect [3]: -12.7%

AGUGGCAAAGUCUUUCCAUAU [hsa-miR-3688-5p]
percent viability [1]: 31.6%
one-nucleolus phenotype percent effect [2]: 16%
5+ nucleoli phenotype percent effect [3]: -15.4%

AGUGGCACAUGUUUGUUGUGAG [hsa-miR-891a-3p]
percent viability [1]: 32.1%
one-nucleolus phenotype percent effect [2]: 35%
5+ nucleoli phenotype percent effect [3]: -11.2%
